Measurements taken from article PMC3405053.

Target: MKP-3, endogenous in mouse liver (mouse (endogenous in C57BL/6 liver)) (UniProt Q9DBB1)
Test: co-IP; liver lysates of C57BL/6 mice injected with adenoviruses (GFP or FOXO1 3A, plus shGFP or shMKP-3); MKP-3 immunoprecipitated with MKP-3 antibody-bound Exactra D matrix; western blot for FOXO1, quantified

UniProt Q9DBB1, sequence (Q9DBB1 whole entry): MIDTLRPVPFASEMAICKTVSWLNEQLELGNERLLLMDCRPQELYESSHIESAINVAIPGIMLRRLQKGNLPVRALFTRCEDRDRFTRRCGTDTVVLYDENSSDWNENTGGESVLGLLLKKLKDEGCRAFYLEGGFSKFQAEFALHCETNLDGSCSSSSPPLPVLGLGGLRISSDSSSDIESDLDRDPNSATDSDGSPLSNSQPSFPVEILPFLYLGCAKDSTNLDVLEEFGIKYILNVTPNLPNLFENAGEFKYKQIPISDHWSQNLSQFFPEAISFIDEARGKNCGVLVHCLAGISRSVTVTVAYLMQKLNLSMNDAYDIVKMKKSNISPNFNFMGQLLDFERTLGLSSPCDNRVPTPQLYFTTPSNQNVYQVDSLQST

fold of FOXO1/FOXO1 3A protein associated with MKP-3 compared to GFP control: 7.9 fold
Substance: FOXO1 3A (Akt phosphorylation resistant FOXO1 mutant), over-expressed in mouse liver (from UniProt Q9R1E0 1-652) (natural protein)
